{"source": "the RNAGym collection of RNA variant scans (doi:10.7554/elife.90254)", "parents": {"B1": {"name": "OR4K15 (parent)", "chain": "GUUAACGGUCAUAGGCCAUGGAAACUAGGAGCACCAUUUCGCUGCCAGUGAAGAAAUGAACAAAGAAAAUCUGGGCCAGGCAGGCAUCAAAAGAAAUAGUCUUGCGCUCAACCAGAAAGUCUGUAAUCAUUUUAAGGGUA"}}}
{"variants_of": "B1", "test": "self-cleavage, relative activity (ratio to wild type); higher = more cleavage; in vitro, sequencing; the parent is a self-cleaving ribozyme"}
{"variant": "GUUAACGGUCAUAGGCCUUGGAAACUAGGAGCACCAUUUCGCUGCCAGUGAAGAAAUGAACAAAGAAAAUCUGGGCCAGGCAGGCAUCAAAAGAGAUAGUCUUGCGCUCAACCAGAAAGUCUGUAAUCAUUUUAAGGGUA", "self-cleavage": 1.96}
{"variant": "GUUAACGGUCAUAGGCCUUGGAAACUAGGAGCACCAUUUCGCUGCCAGUGAAGAAAUGAACAAAGAAAAUCUGGGCCAGGCAGGCAUUAAAAGAAAUAGUCUUGCGCUCAACCAGAAAGUCUGUAAUCAUUUUAAGGGUA", "self-cleavage": 0.43}
{"variant": "GUUAACGGUCAUAGGCCUUGGAAACUAGGAGCACCAUUUCGCUGCCAGUGAAGAAAUGAACAAAGAAAAUCUGGGCCAGGCAGGCAUCAAAAGGAAUAGUCUUGCGCUCAACCAGAAAGUCUGUAAUCAUUUUAAGGGUA", "self-cleavage": 1.06}
{"variant": "GUUAACGGUCAUAGGCCUUGGAAACUAGGAGCACCAUUUCGCUGCCAGUGAAGAAAUGAACAAAGAAAAUCUGGGCCAGGCAGGCAUCAAAAGAAAUAGUCUUGCGCUCCACCAGAAAGUCUGUAAUCAUUUUAAGGGUA", "self-cleavage": 0.23}
{"variant": "GUUAACGGUCAUAGGCCUUGGAAACUAGGAGCACCAUUUCGCUGCCAGUGAAGAAAUGAACAAAGAAAAUCUGGGCCAGGCAGGCAUCAAAAGAAAUAGUAUUGCGCUCAACCAGAAAGUCUGUAAUCAUUUUAAGGGUA", "self-cleavage": 0.05}
{"variant": "GUUAACGGUCAUAGGCCUUGGAAACUAGGAGCACCAUUUCGCUGCCAGUGAAGAAAUGAACAAAGAAAAUCUGGGCCAGGCAGGCAUCAAAGGAAAUAGUCUUGCGCUCAACCAGAAAGUCUGUAAUCAUUUUAAGGGUA", "self-cleavage": 1.04}
{"variant": "GUUAACGGUCAUAGGCCUUGGAAACUAGGAGCACCAUUUCGCUGCCAGUGAAGAAAUGAACAAAGAAAAUCUGGGCCAGGCAGGCAUCAAAAGAAAUAGUCUUGCGCUCAACCAGAAGGUCUGUAAUCAUUUUAAGGGUA", "self-cleavage": 0.6}
{"variant": "GUUAACGGUCAUAGGCCUUGGAAACUAGGAGCACCAUUUCGUUGCCAGUGAAGAAAUGAACAAAGAAAAUCUGGGCCAGGCAGGCAUCAAAAGAAAUAGUCUUGCGCUCAACCAGAAAGUCUGUAAUCAUUUUAAGGGUA", "self-cleavage": 1.18}
{"variant": "GUUAACGGUCAUAGGCCUUGGAAACUAGGAGCACCAUUUCGCUGCCAGUGAAGAAAUGAACAAAGAAAAUCUGGGCCAGGCAGGCAUCAAAAGAACUAGUCUUGCGCUCAACCAGAAAGUCUGUAAUCAUUUUAAGGGUA", "self-cleavage": 1.02}
{"variant": "GUUAACGGUCAUAGGCCUUGGAAACUAAGAGCACCAUUUCGCUGCCAGUGAAGAAAUGAACAAAGAAAAUCUGGGCCAGGCAGGCAUCAAAAGAAAUAGUCUUGCGCUCAACCAGAAAGUCUGUAAUCAUUUUAAGGGUA", "self-cleavage": 1.78}
{"variant": "GUUAACGGUCAUAGGCCUUGGAAACUAGGAGCACCAUUUCGCUGCCAGUGAAGAAAUGAACAAAGAAAAUCUGGGCCAGGCAGGCAUCAAAAGAAAUAGUCUUGCGCUCAACCAGAAAGUCUGUAAUCAUUUUAGGGGUA", "self-cleavage": 1.36}
{"variant": "GUUAACGGUCAUAGGCCUUGGAAACUAGGAGCACCAUUUCGCUGCCAGUGAAGAAAUGAACAAAGAAAAUCUGGGCCAGGCAGGCAUCAAAAGAAAUAGUCUUGCGCUCAACCAGAAAGUCUGUAAUCAUUUUAAGGGUG", "self-cleavage": 1.49}
{"variant": "GUUAACGGUCAUAGGCCUUGGAAACUAGGAGCACCAUUUCGCUGCCAGUGAAGAAAUGAACAAAGAAAAUCUGGGCCAGGCAGGCAUCAAAAGAAAUAGUCUUGCGCUCAACCAGAAAGUCUGUAAUCAUUUUAAGGGUU", "self-cleavage": 1.33}
{"variant": "GUUAACGGUCAUAGGCCUUGGAAACUAGGAGCACCAUUUCGCUGCCAGUGAAGAAAUGAACAAAGAAAAUCUGGGCCAGGCAGGUAUCAAAAGAAAUAGUCUUGCGCUCAACCAGAAAGUCUGUAAUCAUUUUAAGGGUA", "self-cleavage": 1.37}
{"variant": "GUUAACGGUCAUAGGCCUUGGAAACUAGGAGCACCAUUUCGCUGCCAGUGAAGAAAUGAACAAAGAAAAUCUGGGCCAGGCUGGCAUCAAAAGAAAUAGUCUUGCGCUCAACCAGAAAGUCUGUAAUCAUUUUAAGGGUA", "self-cleavage": 0.16}
{"variant": "GUUAACGGUCAUAGGCCUUGGAAACUAGGAGCACCAUUUCGCUGCCAGUGAAGAAAUGAACAAAGAAAAUCUGGGCCAGGCAGGCAUCAAAAGAAAUAGUCUUGCGCUCAACCGGAAAGUCUGUAAUCAUUUUAAGGGUA", "self-cleavage": 0.35}
{"variant": "GUUAACGGUCAUAGGCCUUGGAAACUAGGAGCACCAUUUCGCUGCCAGUGAAGAAAUGAACAAAGAAAAUCUGGGCCAGGCAGGCAUCAAAAGAAAUAGUCUUGCGCUCAACCAGAAAGUCUGUAAUCGUUUUAAGGGUA", "self-cleavage": 1.24}
{"variant": "GUUAACGGUCAUAGGCCUUGGAAACUAGGAGCACCAUUUCGCUGCCAGUGAAGAAAUGAACAAAGAAAAUCUGGGCCAGGCAGGCAUCAAAAGAAAUAGUCUUGCGCUCAACCAGAGAGUCUGUAAUCAUUUUAAGGGUA", "self-cleavage": 1.72}
{"variant": "GUUAACGGUCAUAGGCCUUGGAAACUAGGAGCACCAUUUCGCUGCCAGUGAAGAAAUGAACAAAGAAAAUCUGGGCCAGGCAGGCAUCAUAAGAAAUAGUCUUGCGCUCAACCAGAAAGUCUGUAAUCAUUUUAAGGGUA", "self-cleavage": 1.13}
{"variant": "GUUAACGGUCAUAGGCCUUGGAAACUAGGAGCACCAUUUCGCUGCCAGUGAAGAAAUGAACAAAGAAAAUCUGGGCCAGGCAGGCAUCGAAAGAAAUAGUCUUGCGCUCAACCAGAAAGUCUGUAAUCAUUUUAAGGGUA", "self-cleavage": 1.59}
{"variant": "GUUAACGGUCAUAGGCCUUGGAAACUAGGAGCACCAUUUCGCUGCCAGUGAAGAAAUGAACAAAGAAAAUCUGGGCCAGGCAGGCAUCCAAAGAAAUAGUCUUGCGCUCAACCAGAAAGUCUGUAAUCAUUUUAAGGGUA", "self-cleavage": 0.9}
